Results: patent US20150299264A1
No end group written: not given here.

Molecular target: 40 non-kinase enzyme assays, including phosphatases and proteases
Assay: cell-based or functional assay
Settings: scale: % inhibition of activity at 100 µM MMI-0100

For YARAAARQARAKALARQLGVAA (also: acetate salt) [MMI-0100 peptide (…; SEQ ID NO: 1)], which inhibition of activity in enzyme assays in the presence and absence of 100 µM MMI-0100 is on record?
The inhibition of activity in enzyme assays in the presence and absence of 100 µM MMI-0100 was < 50.
